In this experiment the target is HLA-A*02:01 (Homo sapiens, UniProt P04439, D140Y/D185E/D98H/E176V/E277Q/G131W/G231S/I119V/I121R/I166T/I218V/L300P/L318F/N151K/N90K/P208A/P217A/Q86G/Q94H/R138H/R169H/T345S). As to the kind of experiment: MHC binding assay (UV-ligand exchange, beta2m ELISA, peptide exchange yield). The settings on record: binding to HLA-A*02:01. The source says:
Candidate peptides for T cell based therapies according to the present invention were further tested for their MHC binding capacity (affinity). The individual peptide-MHC complexes were produced by UV-ligand exchange, where a UV-sensitive peptide is cleaved upon UV-irradiation, and exchanged with the peptide of interest as analyzed. Only peptide candidates that can effectively bind and stabilize the peptide-receptive MHC molecules prevent dissociation of the MHC complexes. To determine the yield of the exchange reaction, an ELISA was performed based on the detection of the light chain ([…]) of stabilized MHC complexes. The assay was performed as generally described in Rodenko et al. (Rodenko et al., 2006).
96 well MAXISorp plates (NUNC) were coated over night with 2 ug/ml streptavidin in PBS at room temperature, washed 4× and blocked for 1 h at 37° C. in 2% BSA containing blocking buffer. Refolded HLA-A*02:01/MLA-001 monomers served as standards, covering the range of 15-500 ng/ml. Peptide-MHC monomers of the UV-exchange reaction were diluted 100 fold in blocking buffer. Samples were incubated for 1 h at 37° C., washed four times, incubated with 2 ug/ml HRP conjugated anti-β2m for 1 h at 37° C., washed again and detected with TMB solution that is stopped with […]. Absorption was measured at 450 nm. Candidate peptides that show a high exchange yield (preferably higher than 50%, most preferred higher than 75%) are generally preferred for a generation and production of antibodies or fragments thereof, and/or T cell receptors or fragments thereof, as they show sufficient avidity to the MHC molecules and prevent dissociation of the MHC complexes.
For orientation: An ELISA detects its analyte on a solid surface through an enzyme-linked reagent.
“121 (SLAPNIISQL; listed as Homo sapiens) [compound 121]”: the “Peptide exchange (MHC class I binding score, peptide exchange yield)” value (“Peptide exchange” below) is reported as ““+++” (≥50 = +++)”. Take “185 (VLYTGVVRV; listed as Homo sapiens) [compound 185]”: the “Peptide exchange” value is recorded as ““+++” (≥50 = +++)”. The entry for “20 (YLKDGDVML; listed as Homo sapiens) [compound 20]” is ““+++” (≥50 = +++)”; for “139 (VLLNEILEQV; listed as Homo sapiens) [compound 139]” it is ““+++” (≥50 = +++)”.

For “122 (SLMGMVLKL; listed as Homo sapiens) [compound 122]”, the “Peptide exchange” value was ““+++” (≥50 = +++)”. The entry for “125 (KLGDFGLLVEL; listed as Homo sapiens) [compound 125]” is ““++++” (≥75% = ++++)”; for “77 (SLLKRDFGA; listed as Homo sapiens) [compound 77]” it is ““++” (≥20% = ++)”; for “66 (GLDDGPDFL; listed as Homo sapiens) [compound 66]” it is ““++” (≥20% = ++)”.

On to “135 (KLQEEIPVL; listed as Homo sapiens) [compound 135]”, for which the “Peptide exchange” value was ““++” (≥20% = ++)”. Regarding “137 (QLTEIKPLL; listed as Homo sapiens) [compound 137]”, the “Peptide exchange” value is reported as ““+++” (≥50 = +++)”. On to “112 (KLGQVLIYL; listed as Homo sapiens) [compound 112]”, for which the “Peptide exchange” value is listed as ““++” (≥20% = ++)”. In the case of “184 (SLLDENNVSSYL; listed as Homo sapiens) [compound 184]”, the “Peptide exchange” value is reported as ““+++” (≥50 = +++)”. As to “168 (GLIRFPLMTI; listed as Homo sapiens) [compound 168]”, the “Peptide exchange” value is ““+++” (≥50 = +++)”.

Regarding “79 (SLAADQLLKL; listed as Homo sapiens) [compound 79]”, the “Peptide exchange” value is recorded as ““++” (≥20% = ++)”. For the substance “68 (SILQFVHMV; listed as Homo sapiens) [compound 68]”, the “Peptide exchange” value is given as ““+++” (≥50 = +++)”. For the substance “46 (GLDDRYSLV; listed as Homo sapiens) [compound 46]”, the “Peptide exchange” value was ““+++” (≥50 = +++)”.

For “102 (KILVSLIEV; listed as Homo sapiens) [compound 102]”, the “Peptide exchange” value was ““+++” (≥50 = +++)”. As for “154 (KLPSETIFVGC; listed as Homo sapiens) [compound 154]”, the “Peptide exchange” value is listed as ““+++” (≥50 = +++)”. Next, “62 (YLAPENGYL; listed as Homo sapiens) [compound 62]”: ““++” (≥20% = ++)”. For the substance “91 (TVDVATPSV; listed as Homo sapiens) [compound 91]”, the “Peptide exchange” value is recorded as ““+++” (≥50 = +++)”. The entry for “106 (SLISEKILL; listed as Homo sapiens) [compound 106]” is ““+++” (≥50 = +++)”; for “129 (VLIDVLKEL; listed as Homo sapiens) [compound 129]” it is ““+++” (≥50 = +++)”; for “145 (LLLEVVKQV; listed as Homo sapiens) [compound 145]” it is ““+++” (≥50 = +++)”. The entry for “160 (KLLEFDQLQL; listed as Homo sapiens) [compound 160]” is ““+++” (≥50 = +++)”. Next, “169 (YLAHFIEGL; listed as Homo sapiens) [compound 169]”: ““+++” (≥50 = +++)”; “187 (GLHNVVYGI; listed as Homo sapiens) [compound 187]”: ““+++” (≥50 = +++)”. “50 (TLMAEMHVV; listed as Homo sapiens) [compound 50]”: the “Peptide exchange” value was ““+++” (≥50 = +++)”. As for “26 (GLASKENFSNVSL; listed as Homo sapiens) [compound 26]”, the “Peptide exchange” value was ““++” (≥20% = ++)”. The entry for “186 (KMSEKILLL; listed as Homo sapiens) [compound 186]” is ““+++” (≥50 = +++)”; for “27 (LLADEDSSYL; listed as Homo sapiens) [compound 27]” it is ““++” (≥20% = ++)”. Next, “117 (TLQPVDNSTISL; listed as Homo sapiens) [compound 117]”: ““++” (≥20% = ++)”; “164 (KMLDEILLQL; listed as Homo sapiens) [compound 164]”: ““++++” (≥75% = ++++)”. In the case of “151 (SAQGSDVSLTACKV; listed as Homo sapiens) [compound 151]”, the “Peptide exchange” value is given as ““+++” (≥50 = +++)”. Next, “16 (VLVDQSWVL; listed as Homo sapiens) [compound 16]”: ““+++” (≥50 = +++)”.

Turning to “120 (VLYEGVDEV; listed as Homo sapiens) [compound 120]”, the “Peptide exchange” value is ““++” (≥20% = ++)”.

As to “148 (RLLENMTEVV; listed as Homo sapiens) [compound 148]”, the “Peptide exchange” value was ““+++” (≥50 = +++)”. Next, “138 (KQFEGTVEI; listed as Homo sapiens) [compound 138]”: ““+++” (≥50 = +++)”; “181 (NLFDLGGQYLRV; listed as Homo sapiens) [compound 181]”: ““+++” (≥50 = +++)”. With “15 (LQLDKEFQL; listed as Homo sapiens) [compound 15]”, the “Peptide exchange” value is reported as ““+++” (≥50 = +++)”. For “173 (KLGDLMVLL; listed as Homo sapiens) [compound 173]”, the “Peptide exchange” value is ““+++” (≥50 = +++)”.

As for “149 (YQFDKVGILTL; listed as Homo sapiens) [compound 149]”, the “Peptide exchange” value is ““+++” (≥50 = +++)”. Next, “166 (GLLEARGILGL; listed as Homo sapiens) [compound 166]”: ““+++” (≥50 = +++)”; “57 (NLLEKENYL; listed as Homo sapiens) [compound 57]”: ““+++” (≥50 = +++)”.

Take “78 (ALDPELLLL; listed as Homo sapiens) [compound 78]”: the “Peptide exchange” value is ““++” (≥20% = ++)”. In the case of “35 (KLLDLTVRI; listed as Homo sapiens) [compound 35]”, the “Peptide exchange” value is listed as ““+++” (≥50 = +++)”. Turning to “190 (AMAEMVLQV; listed as Homo sapiens) [compound 190]”, the “Peptide exchange” value is ““+++” (≥50 = +++)”.

“25 (SLADRLIGV; listed as Homo sapiens) [compound 25]”: the “Peptide exchange” value is ““++++” (≥75% = ++++)”. Next, “143 (KLSDVWKEL; listed as Homo sapiens) [compound 143]”: ““+++” (≥50 = +++)”. Next, “189 (AISEVIGKITA; listed as Homo sapiens) [compound 189]”: ““+++” (≥50 = +++)”; “109 (ALDGDQMEL; listed as Homo sapiens) [compound 109]”: ““++” (≥20% = ++)”.

Consider “48 (FLDASDPAL; listed as Homo sapiens) [compound 48]”, for which the “Peptide exchange” value is reported as ““++” (≥20% = ++)”.

For the origin of these results see US10513547B2, “Peptides and combination of peptides and scaffolds thereof for use in immunotherapy against colorectal carcinoma (CRC) and other cancers” (Immatics Biotechnologies GmbH, priority 2015, dated 2019).
